Source: US20020147306A1 (published 2002)
No end group written: not given here.

B1: GST-syntenin fusion protein (full length: residues 1-299) (other, mouse, UniProt O08992 1-299, looked up)
chain: MSLYPSLEDLKVDKVIQAQTAYSANPASQAFVLVDASAALPPDGNLYPKLYPELSQYMGLSLNEAEICESMPMVSGAPAQGQLVARPSSVNYMVAPVTGNDAGIRRAEIKQGIREVILCKDQDGKIGLRLKSIDNGIFVQLVQANSPASLVGLRFGDQVLQINGENCAGWSSDKAHKVLKQAFGEKITMTIRDRPFERTVTMHKDSSGHVGFIFKSGKITSIVKDSSAARNGLLTDHHICEINGQNVIGLKDAQIADILSTAGTVVTITIMPTFIFEHIIKRMAPSIMKSLMDHTIPEV
notes: range 1-299; also called full-length syntenin; GST fusion of full-length syntenin; not shown: glutathione S-transferase (GST) from vector pGEX4T2
B2: syntenin-FLAG (other, mouse, UniProt O08992 1-299, looked up, not shown: small tags and cut ends)
chain: B1 chain
notes: range 1-299; Co-expressed with ephrin B1 in Cos-1 cells
B3: fluorescein-labelled NIYYKV peptide (peptide)
peptide: NIYYKV
modifications: also: 5-(and-6-)carboxyfluorescein label, site not given here
notes: 25 nM probe in fluorescence polarization; also called unphosphorylated peptide probe

How the values were obtained:
ephrin B1 Val deletion [1] = molecular target: T1, ephrin B1 Val deletion (UniProt P98172 28-346, limits assumed); test: GST mix with lysates of transfected Cos-1 cells, anti-ephrin B1 immunoblot
T1 construct: whole, on cells; Tested from lysates of transfected Cos-1 cells; also called ephrin B1 Val deletion mutant; ephrin B1 lacking the C-terminal Val
T1 sequence (looked up): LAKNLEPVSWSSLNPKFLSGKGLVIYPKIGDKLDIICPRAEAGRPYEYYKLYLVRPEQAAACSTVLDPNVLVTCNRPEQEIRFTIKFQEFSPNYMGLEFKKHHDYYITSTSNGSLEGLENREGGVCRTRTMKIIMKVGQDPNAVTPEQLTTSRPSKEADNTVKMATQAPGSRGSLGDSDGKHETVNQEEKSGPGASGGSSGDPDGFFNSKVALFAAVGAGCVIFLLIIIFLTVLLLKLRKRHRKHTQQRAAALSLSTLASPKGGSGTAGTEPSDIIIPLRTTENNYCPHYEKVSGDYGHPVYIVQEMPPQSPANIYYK
Procedure: FIGS. 3A-C. FAP-1 PDZ5 and syntenin bind specifically to ephrin B1 in GST-mixes. Cos-1 cells were transiently transfected with either wild-type ephrin B1 (W. T.) or the ephrin B1 Val deletion (Val Δ) or were untransfected. Cell lysates were incubated with the GST fusion proteins as indicated and analyzed by immunoblotting with anti-ephrin B1 antibody. Immunoprecipitated ephrin B1 or ephrin B1 Val Δ were included as a positive control. FIG. 3A and FIG. 3B, GST-mixes with fusion proteins of FAP-1. C and D, GST-mixes with fusion proteins of syntenin.
(§1) Cos-1 cells were maintained in DMEM supplemented with 10% fetal bovine serum (FBS). Transient transfections were performed using Lipofectin reagent and Opti-MEM medium (Life Technologies Inc.) as outlined by the manufacturer. To reduce phosphorylation of ephrin B1 by binding to endogenously expressed EphB receptors or by stimulation with serum growth factors, transfected cells were transferred from 10 cm to 15 cm plates 24 h after transfection and serum starved in DMEM 0.5% FBS 12 h prior to cell lysis. Transfected cells were rinsed once in PBSA and lysed in PLC lysis buffer (5) with 10 μg/ml aprotonin, 10 μg/ml leupeptin, 1 mM sodium vanadate and 1 mM phenylmethylsulfonyl fluoride added. Immunoprecipitations were performed for 1 h at 4° C. using 1 μg anti-ephrin B1 antibody or 1 μg anti-IL-3 receptor a antibody with protein A-sepharose. […]

[2] = molecular target: fluorescein-labelled NIpYYKV peptide; test: fluorescence polarization, 25 nM fluorescein-labelled peptide, GST fusion titrated, 22 C
Procedure: (§2) FIGS. 5A and 5B. Fluorescence polarization analysis of GST-FAP-1 PDZ3, GST-FAP-1 PDZ5 and GST-syntenin binding to Fluorescein-labelled peptides corresponding to the C-terminus of ephrin B1. FIG. 5 A, Solutions containing the indicated final concentration of GST-FAP-1 PDZ3 ( ) or GST-FAP-1 PDZ5 ( ) fusion protein in mixtures containing 25 nM fluorescein-labelled NIYYKV peptide probe, 20 mM phosphate pH 7.0, 100 mM NaCl, and 2 mM dithiothreitol (DTT) were monitored for fluorescence polarization at 22° C. The GST-FAP-1 PDZ5 fusion protein was also measured for binding to the phosphorylated peptides, NIpYYKV ( ), NiYpYKV ( ) and NIpYpYKV ( ). […] FIG. 5B, A Binding of a GST fusion of full-length syntenin to the NIYYKV ( ), NIpYYKV ( ), and NIpYpYKV ( ) peptides as measured by fluorescence polarization.
(§3) Binding constant determination and peptide competition studies were carried out using fluorescence polarization on a Beacon 2000 Fluorescence Polarization System (Pan Vera, Wis.) equipped with a 100-μl sample chamber. Fluorescein-labeled probes were prepared through reaction of B ephrin C-terminal peptides with 5-(and-6-)-carboxyfluorescein, succinimidyl ester (Molecular Probes, Oreg.) and purified by reverse-phase HPLC. The authenticity of the fluorescein-labelled peptides were confirmed by mass spectroscopy. In the binding studies, the fluorescein-labelled peptide probe was dissolved in 20 mM phosphate pH 7.0, 100 mM NaCl, and 2 mM DTT to a concentration of 25 nM and a known quantity of GST- fusion protein added. The reaction mixtures were allowed to stand for 10 min at room temperature prior to each measurement. All fluorescence polarization measurements were conducted at 22° C.
(§4) Fluorescence polarization experiments measuring GST-syntenin fusion protein binding to fluorescein-labeled NIYYKV (SEQ. ID. NO. 10) and NIpYYKV (SEQ. ID. NO. 8) peptides yielded nearly identical binding curves (FIG. 5B).

[3] = molecular target: fluorescein-labelled NIpYpYKV peptide; test: as above
Procedure: as §2, §3, §4

protein A sepharose = molecular target: T2, protein A sepharose (UniProt P38507 37-477); test: precipitation from Cos-1 cells co-transfected with ephrin B1 and syntenin-FLAG, anti-FLAG blot
T2 construct: Bead-only control in the co-immunoprecipitation; also called protein A sepharose alone
Procedure: (§5) FIG. 6. Co-immunoprecipitation of syntenin-FLAG with ephrin B1. Cos-1 cells were co-transfected with either ephrin B1 and syntenin-FLAG or with the ephrin B1 Val deletion and syntenin-FLAG as indicated. Cell lysates were immunoprecipitated with antibodies against ephrin B1 or IL-3 receptor a or were treated with protein A sepharose only. Immunocomplexes were subjected to SDS-PAGE (10%) and blotted with anti-FLAG antibodies.
as §1

ephrin B1 Val deletion [4] = molecular target: T1, ephrin B1 Val deletion; test: co-immunoprecipitation from co-transfected Cos-1 cells, anti-FLAG blot
Procedure: as §5, §1

[5] = molecular target: B1; test: fluorescence polarization, 25 nM fluorescein-labelled peptide, GST fusion titrated, 22 C
Procedure: as §2, §3, §4

Binder: B1
- binding result (ephrin B1 Val deletion [1]): no binding
- Kd [2]: 15.4 µM
- Kd [3]: 151 µM

Binder: B2
- binding result (protein A sepharose): no binding
- binding result (ephrin B1 Val deletion [4]): no binding

Binder: B3
- Kd [5]: 17.7 µM
